Measured values taken from US20230151340A1, “PLASTIC DEGRADING FUSION PROTEINS AND METHODS OF USING THE SAME” (Alliance for Sustainable Energy, LLC, priority 2020, published 2023).

B1: Comamonas thiooxydans MHETase (putative MHETase, Genbank WP_080747404.1), C-terminal His tag (Comamonas thiooxydans) (protein)
chain: HMFVRNADRAKNCMRAPLRVFPLKDTFSAQCANVSVWITSSVPPLRERHMDRRVTRRDLMQTRILLMLIAATGVAACGGDGGSTPAAQNPPLPLASRAACEAFQGNSNSIAWPHRATVVEVATWHEAEPANATAAATPEHCEISGAIARRTGIDGYPYEIKFRLRMPSEWNGRFFMEGGGGTNGSLSAATGSLGGGQTASALSRNFATIATDGGHDNAVNNNPDALGTVAFGMDPQARIDMGYNSYDQVTQAGKAAVAQFYGRAPDKSYFIGCSEGGREGMMLSQRFPSHYDGIVAGAPGYQLPKAGISGAWTTQSLAPAAVGVDAQNVPLINKAFSDVDLHLLSRGILGTCDALDGLSDGIVNDFRACQAAFDPATALNPDTSQPLQCTGAKTPDCLSAAQVTGIKRAMGGPVDSAGAALYNRWAWDPGMSGLNGTSYNQGWRSWWLGSYASSTNNAQRVNGFSARSWLVDFATPPEPMPVTQVAARMMNFNFDTDPPKIRATSGPFTPSSMEWHGATSTNLAAFRDRGGKLMLYHGMSDAAFSALDTADYYERLGAAMPGAAGFARLFLVPGMNHCSGGPGTDRFDMLTPLVAWVERDKAPDQVSAWAGTPGYFGATARTRPLCPYPQIARYKGSGDINAEASFVCVAPLE
B2: Ideonella sakaiensis 201-F6 MHETase (Is MHETase), wild type, Genbank GAP38911.1, C-terminal His tag (DNA SEQ ID NO: 1) (Pseudideonella sakaiensis) (protein)
chain: CAGGGSTPLPLPQQQPPQQEPPPPPVPLASRAACEALKDGNGDMVWPNAATVVEVAAWRDAAPATASAAALPEHCEVSGAIAKRTGIDGYPYEIKFRLRMPAEWNGRFFMEGGSGTNGSLSAATGSIGGGQIASALSRNFATIATDGGHDNAVNDNPDALGTVAFGLDPQARLDMGYNSYDQVTQAGKAAVARFYGRAADKSYFIGCSEGGREGMMLSQRFPSHYDGIVAGAPGYQLPKAGISGAWTTQSLAPAAVGLDAQGVPLINKSFSDADLHLLSQAILGTCDALDGLADGIVDNYRACQAAFDPATAANPANGQALQCVGAKTADCLSPVQVTAIKRAMAGPVNSAGTPLYNRWAWDAGMSGLSGTTYNQGWRSWWLGSFNSSANNAQRVSGFSARSWLVDFATPPEPMPMTQVAARMMKFDFDIDPLKIWATSGQFTQSSMDWHGATSTDLAAFRDRGGKMILYHGMSDAAFSALDTADYYERLGAAMPGAAGFARLFLVPGMNHCSGGPGTDRFDMLTPLVAWVERGEAPDQISAWSGTPGYFGVAARTRPLCPYPQIARYKGSGDINTEANFACAAPP

How the values were obtained:
[1] = substrate: O=C(O)c1ccc(C(=O)OCCO)cc1; assay: Michaelis-Menten kinetics of MHETase and variants (substrate inhibition model); type: biochemical, Comamonas thiooxydans; settings: other: MHET 10-250 μM, 5 nM enzyme, pH 7.5, 30° C.
[2] = substrate: O=C(O)c1ccc(C(=O)OCCO)cc1; assay: purified protein, by the assay type; settings: other: MHET 10-250 μM, 5 nM enzyme, pH 7.5, 30° C., substrate inhibition model

Protein	Km [1] [µM]	Vmax [1] [µM/min]	kcat/Km [1] [M⁻¹ s⁻¹]	Km [2] [µM]
B1	174.70 ± 4.75	12.2	230000	–
B2	–	–	–	23.17 ± 1.65
